Source: patent publication US20220162304A1 (TUOJIE BIOTECH SHANGHAI, published 2022)

Key:
[1] = target: T1, human CD79B protein on the surface of DoHH2 cells (human, UniProt P40259 29-229); test: FACS, hybridoma culture supernatant on DoHH2 cells
T1 construct: whole, on cells; endogenous CD79B on a B-cell lymphoma line
T1 sequence (looked up): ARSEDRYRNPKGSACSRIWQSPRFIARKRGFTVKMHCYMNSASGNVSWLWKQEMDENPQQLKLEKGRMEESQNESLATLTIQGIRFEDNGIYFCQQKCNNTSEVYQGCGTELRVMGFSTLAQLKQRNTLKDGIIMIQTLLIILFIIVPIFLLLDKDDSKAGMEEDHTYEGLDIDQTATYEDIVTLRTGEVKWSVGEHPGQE
Experimental: 4) FACS screening. DoHH2 cell suspensions were centrifuged and the cells were resuspended in PBS containing 0.1% BSA and counted. The cell supernatant to be tested was added. After 60 min of incubation at room temperature, the cells were washed for three times and then anti-mouse IgG Fc-FITC secondary antibody was added. After 30 min of incubation at room temperature in the dark, the cells were washed for three times and gently resuspended in PBS containing 0.1% BSA for detection on the instrument.
(§1) 5) Identification of positive hybridoma clones. After fusion and subclone screening of mouse spleen cells, we obtained a number of specific antibodies against human CD79B antigen. Among them, 17 hybridomas with the best ELISA and FACS binding ability were used for antibody production and purification. The FACS detection results of the culture supernatant of anti-human CD79B hybridoma positive clone cells are shown in Table 2. mIgG was used as a negative control in both ELISA and FACS tests.

[2] = target: T2, human CD79B antigen (coating antigen of the ELISA, construct not stated) (human, UniProt P40259 29-159); test: ELISA, hybridoma culture supernatant on plate coated with antigen 1 µg/mL
T2 sequence (looked up): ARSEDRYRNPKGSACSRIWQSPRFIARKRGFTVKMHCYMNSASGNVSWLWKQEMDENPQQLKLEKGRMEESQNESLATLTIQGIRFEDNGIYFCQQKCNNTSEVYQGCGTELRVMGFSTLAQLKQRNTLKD
Experimental: 3) ELISA screening. Before the start of the experiment, a 96-well plate was labeled accordingly and coated with an antigen at a concentration of 1 μg/mL, 50 μl per well overnight in a refrigerator at 4° C. The next day, the antigen plate coated the day before was taken out and washed with a plate washer (washing solution: 1×PBST). After washing, the plate was blocked with 1% BSA blocking solution prepared in 1×PBST at 37° C. for 1 h. After washing the plate with 1×PBST washing solution for 3 times, 50 μl of cell supernatant to be tested were added and incubated in a 37° C. incubator for 1 h. After washing the plate with 1×PBST washing solution for 3 times, 100 μl 1:5000 diluted goat-anti-mouse secondary antibody was added and incubated in a 37° C. incubator for 0.5 h. After washing the plate, TMB chromogenic solution A and B were mixed at a 1:1 ratio and then color development was carried out. The development reaction was terminated with 1 N hydrochloric acid after 15 min. The […] at 450 nm were detected on a Spectra Max M5 multi-function plate reader.
as §1

[3] = target: T1, human CD79B protein on the surface of …; test: FACS on DOHH2 cells, serial antibody dilutions, anti-mouse IgG Fc-FITC secondary antibody, MFI
Experimental: 3) FACS detection of anti-human CD79B murine monoclonal antibodies. After centrifugation of the DOHH2 cell suspension, the cells were resuspended in PBS containing 0.1% BSA and counted. 100 μl of antibody diluted to 100 nM (by 1:10) was added and incubated for 1 h at room temperature. After washing the cells for three times, anti-mouse IgG Fc-FITC secondary antibody was added. After 30 min of incubation at room temperature in the dark, the cells were washed for three times and gently resuspended in PBS containing 0.1% BSA for testing on an instrument. Among them, three anti-human CD79B murine monoclonal antibodies had the strongest FACS binding ability, including mAb015, mAb016 and mAb017 (see FIG. 8 for specific data). Among them, hIgG1 was the negative control antibody and SN8 was the positive control antibody. It can be known from the results that in the FACS experiment, the binding ability of the three anti-human CD79B murine monoclonal antibodies mAb015, mAb016 and mAb017 selected preferably by the present disclosure was better than that of SN8.

[4] = target: T2, human CD79B antigen (coating antigen of …); test: ELISA, plate coated with antigen at 1 ug/mL, serial antibody dilutions, OD450
Experimental: 2) ELISA detection of anti-human CD79B murine monoclonal antibodies. Before the start of the experiment, a 96-well plate was labeled accordingly and coated with an antigen at a concentration of 1 μg/mL, 50 μl per well overnight in a refrigerator at 4° C. The next day, the antigen plate coated the day before was taken out and washed with a plate washer (washing solution: 1×PBST) for once. After washing, the plate was blocked with 1% BSA blocking solution prepared in 1×PBST at 37° C. for 1 h. After washing the plate with 1×PBST washing solution for 3 times, 50 μl of antibody, diluted to 100 nM (by 1:10), were added and incubated in a 37° C. incubator for 1 h. After washing the plate with ×PBST washing solution for 3 times, 100 μl 1:5000 diluted goat-anti-mouse secondary antibody was added and incubated in a 37° C. incubator for 0.5 h. After washing the plate, TMB chromogenic solution A and B were mixed at a 1:1 ratio and then color development was carried out. The development reaction was terminated with 1 N hydrochloric acid after 15 min. The […] at 450 nm were detected on a Spectra Max M5 multi-function plate reader. Among them, three anti-human CD79B murine monoclonal antibodies had the strongest ELISA binding ability, including mAb015, mAb016 and mAb017 (see FIG. 7 for specific data). Among them, hIgG1 was the negative control antibody and SN8 was the positive control antibody. SN8 is the antibody used in the antibody-conjugated drug polatuzumab vedotin developed by Roche Pharmaceuticals (for the sequence, refer to the source of the sequence: US20170362318A). At present, polatuzumab vedotin has been approved by the FDA for marketing. It can be seen from the results that in the ELISA experiment, the binding ability of the three anti-human CD79B murine monoclonal antibodies mAb015, mAb016 and mAb017 selected preferably by the present disclosure was similar to that of SN8.

[5] = target: T1, human CD79B protein on the surface of …; test: FACS on DOHH2 cells, serial antibody dilutions, FITC secondary antibody, MFI
[6] = target: T3, fusion protein of human CD79B extracellular domain (ECD) and His tag (human CD79B ECD-His) (human, UniProt P40259 29-159); test: SPR (Biacore 8K; by Example 2 human CD79B-His immobilised on CM5 chip, antibody flowed over)
T3 construct: also called human CD79B-His; Human CD79B-His protein
T3 sequence: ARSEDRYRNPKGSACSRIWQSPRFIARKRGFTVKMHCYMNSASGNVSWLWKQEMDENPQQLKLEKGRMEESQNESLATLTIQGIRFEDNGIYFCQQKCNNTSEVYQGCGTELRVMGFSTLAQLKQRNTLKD

Row | Binder | Mean fluorescence values [1] | OD450 [2] | EC50 (read off the curve) [3] | EC50 (read off the curve) [4] | EC50 (read off the curve) [5] | Kd [6]
1 | murine hybridoma monoclonal antibody mAb015 (antibody, V domains shown, murine monoclonal antibody from hybridoma; also called 83B2G2) VH: QVQLQQSGAELARPGASVKLSCKASGSSFTSYGINWVKQRTGQGLEWIGEIFPRSGNTYYNEKFEGKATLTADKSSSTAYMELRSLTSEDSAVYFCAKGDLGDFDYWGQGTTLTVSS VL: DFLMTQTPLSLPVRLGDQASISCRSSQSIVHSDGNTYFEWYLQKPGQSPKLLIYKVSNRFSGVPDRFSGSGSGTDFTLKISRVEAEDLGVYYCFQGSHVPWTFGGGTKLEIK | 10000 mean fluorescence | 3.41 OD450 | ~0.02 mg/L | ~0.1 nM | – | –
2 | murine hybridoma monoclonal antibody mAb016 (antibody, V domains shown, murine monoclonal antibody from hybridoma; also called 83C2D4) VH: QVQLQQSGAELARPGASVKLSCKASGYIFTNYGIIWVKQRTGQGLEWIGDIFPGSGNTYYNENFKGKATLTADKSSSTAYMELRSLTSEDSAVYFCSRGELGDFDYWGQGTTLTVSS VL: VVLMTQTPLSLPVSLGDQASISCRSSQNIVHSDGTTYLEWYLQKPGQSPKLLIYKVSNRFSGVPDRFSGSGSGTDFTLKISRVEAEDLGIYYCFQGSHVPWTFGGGTKLEIK | 9990 mean fluorescence | 3.46 OD450 | ~0.02 mg/L | ~0.1 nM | – | –
3 | murine hybridoma monoclonal antibody mAb017 (antibody, V domains shown, murine monoclonal antibody from hybridoma; also called 86F11F6) VH: QVQLQQSGAELARPGASVKLSCKASGYTFTTYGINWVKQRTGQGLEWIGEIYPRSGNIYYNEKFKGKATLTADKSSSTAYMELRSLTSEDSAVYFCARGSDYDGDFAYWGQGTLVTVSA VL: DVLMTQTPLSLPVSLGDQASISCRSSQSIVHHDGNTYLEWYLQKPGQSPKLLIYKVSNRFSGVPDRFSGSGSGTDFTLKISRVEAEDLGVYYCFQGSHVPWTFGGGTQLEIK | 8130 mean fluorescence | 3.8 OD450 | ~0.02 mg/L | ~0.1 nM | – | –
4 | SN8 (antibody, V domains shown) VH: EVQLVESGGGLVQPGGSLRLSCAASGYTFSSYWIEWVRQAPGKGLEWIGEILPGGGDTNYNEIFKGRATFSADTSKNTAYLQMNSLRAEDTAVYYCTRRVPIRLDYWGQGTLVTVSS VL: DIQLTQSPSSLSASVGDRVTITCKASQSVDYEGDSFLNWYQQKPGKAPKLLIYAASNLESGVPSRFSGSGSGTDFTLTISSLQPEDFATYYCQQSNEDPLTFGQGTKVEIKR | – | – | – | – | ~0.09 mg/L | –
5 | humanized antibody hAb015 (antibody, human IgG1, kappa, V domains shown) VH: EVQLVQSGAEVKKPGSSVKVSCKASGSSFSSYGINWVKQAPGQGLEWIGEIFPRSGNTYYNEKFEGRATLTADKSTSTAYMELRSLRSEDTAVYYCAKGDLGDFDYWGQGTTVTVSS VL: DFVMTQTPLSLPVTPGEPASISCRSSQSIVHSDGNTYFEWYLQKPGQSPKLLIYKVSNRFSGVPDRFSGSGSGTDFTLKISRVEAEDVGVYYCFQGSHVPWTFGGGTKVEIKR | – | – | – | – | – | 0.43 nM
6 | humanized antibody hAb017 (antibody, human IgG1, kappa, V domains shown) VH: EVQLVQSGAEVKKPGASVKVSCKASGYTFTTYGINWVKQAPGQGLEWIGEIYPRSGNIYYNEKFKGKATLTADKSTSTAYMELRSLRSDDTAVYYCARGSDYDGDFAYWGQGTLVTVSS VL: DVVMTQTPLSLPVTPGEPASISCRSSQSIVHHDGNTYLEWYLQKPGQSPQLLIYKVSNRFSGVPDRFSGSGSGTDFTLKISRVEAEDVGVYYCFQGSHVPWTFGGGTKVEIKR | – | – | – | – | – | 3.77 nM
